These results are taken from publication PMC3660597, “Investigation of Specificity Determinants in Bacterial tRNA-Guanine Transglycosylase Reveals Queuine, the Substrate of Its Eucaryotic Counterpart, as Inhibitor” (PLoS ONE, 2013).

Substrate in data set [1]: NCc1c[nH]c2nc(N)[nH]c(=O)c12
The data set can be described thus: [3H]-preQ1 incorporation into tRNA(Tyr), scintillation counting. Format: biochemical, Zymomonas mobilis. The note with it: 15 µM E. coli tRNA(Tyr), 200 mM HEPES pH 7.3, 20 mM MgCl2, 37°C, labelled compound. An excerpt: [3H]-preQ1 incorporation into tRNA(Tyr), scintillation counting on Z. mobilis Tgt ("wild type" Tgt = Tgt(Tyr106Phe))

Substrate in the data set “purified protein”: Nc1nc2nc[nH]c2c(=O)[nH]1
The data set can be described thus: purified protein. It counts as biochemical, Zymomonas mobilis. The note with it: 15 µM E. coli tRNA(Tyr), 200 mM HEPES pH 7.3, 20 mM MgCl2, 37°C, labelled compound.

B1: Z. mobilis Tgt ("wild type" Tgt = Tgt(Tyr106Phe)) (Zymomonas mobilis subsp. mobilis ZM4 = ATCC 31821; V233G/Y106F) (protein)
chain: VEATAQETDRPRFSFSIAAREGKARTGTIEMKRGVIRTPAFMPVGTAATVKALKPETVRATGADIILGNTYHLMLRPGAERIAKLGGLHSFMGWDRPILTDSGGFQVMSLSSLTKQSEEGVTFKSHLDGSRHMLSPERSIEIQHLLGSDIVMAFDECTPYPATPSRAASSMERSMRWAKRSRDAFDSRKEQAENAALFGIQQGSVFENLRQQSADALAEIGFDGYAVGGLAGGEGQDEMFRVLDFSVPMLPDDKPHYLMGVGKPDDIVGAVERGIDMFDCVLPTRSGRNGQAFTWDGPINIRNARFSEDLTPLDSECHCAVCQKWSRAYIHHLIRAGEILGAMLMTEHNIAFYQQLMQKIRDSISEGRFSQFAQDFRARYFARNS
notes: recombinant from pET9d-ZM-Y106F in E. coli BL21(DE3)/pLysS, purified; homodimer; all variants including "wild type" carry Tyr106Phe
Usually Km stands for the substrate concentration at which the rate is half of its maximum. What is called kcat is the maximal rate divided by the concentration of active sites. Take B1: in data set [1], the Km is 0.6 ± 0.1 µM and the kcat was 0.0063 ± 0.0002 s⁻¹. For the same protein, in “purified protein”, the Km was found to be 1.0 ± 0.2 µM and the kcat was determined as 0.0046 ± 0.0003 s⁻¹.

B2: Z. mobilis Tgt ("wild type" Tgt = Tgt(Tyr106Phe)) (Zymomonas mobilis subsp. mobilis ZM4 = ATCC 31821; Y106F) (protein)
chain: VEATAQETDRPRFSFSIAAREGKARTGTIEMKRGVIRTPAFMPVGTAATVKALKPETVRATGADIILGNTYHLMLRPGAERIAKLGGLHSFMGWDRPILTDSGGFQVMSLSSLTKQSEEGVTFKSHLDGSRHMLSPERSIEIQHLLGSDIVMAFDECTPYPATPSRAASSMERSMRWAKRSRDAFDSRKEQAENAALFGIQQGSVFENLRQQSADALAEIGFDGYAVGGLAVGEGQDEMFRVLDFSVPMLPDDKPHYLMGVGKPDDIVGAVERGIDMFDCVLPTRSGRNGQAFTWDGPINIRNARFSEDLTPLDSECHCAVCQKWSRAYIHHLIRAGEILGAMLMTEHNIAFYQQLMQKIRDSISEGRFSQFAQDFRARYFARNS
notes: as for B1
Consider B2, for which, in data set [1], the Km was found to be 0.9 ± 0.1 µM and the kcat came to 0.106 ± 0.0027 s⁻¹. Besides, in “purified protein”, the Km amounted to 1.2 ± 0.2 µM and the kcat came out at 0.0558 ± 0.0001 s⁻¹.

B3: Z. mobilis Tgt ("wild type" Tgt = Tgt(Tyr106Phe)) (Zymomonas mobilis subsp. mobilis ZM4 = ATCC 31821; C158V/Y106F) (protein)
chain: VEATAQETDRPRFSFSIAAREGKARTGTIEMKRGVIRTPAFMPVGTAATVKALKPETVRATGADIILGNTYHLMLRPGAERIAKLGGLHSFMGWDRPILTDSGGFQVMSLSSLTKQSEEGVTFKSHLDGSRHMLSPERSIEIQHLLGSDIVMAFDEVTPYPATPSRAASSMERSMRWAKRSRDAFDSRKEQAENAALFGIQQGSVFENLRQQSADALAEIGFDGYAVGGLAVGEGQDEMFRVLDFSVPMLPDDKPHYLMGVGKPDDIVGAVERGIDMFDCVLPTRSGRNGQAFTWDGPINIRNARFSEDLTPLDSECHCAVCQKWSRAYIHHLIRAGEILGAMLMTEHNIAFYQQLMQKIRDSISEGRFSQFAQDFRARYFARNS
notes: as for B1
With B3, in data set [1], the Km is 16.0 ± 2.4 µM and the kcat worked out at 0.035 ± 0.0008 s⁻¹. Further, in “purified protein”, the Km is 1.4 ± 0.2 µM and the kcat was found to be 0.0275 ± 0.0002 s⁻¹.

B4: Z. mobilis Tgt ("wild type" Tgt = Tgt(Tyr106Phe)) (Zymomonas mobilis subsp. mobilis ZM4 = ATCC 31821; C158V/V233G/Y106F) (protein)
chain: VEATAQETDRPRFSFSIAAREGKARTGTIEMKRGVIRTPAFMPVGTAATVKALKPETVRATGADIILGNTYHLMLRPGAERIAKLGGLHSFMGWDRPILTDSGGFQVMSLSSLTKQSEEGVTFKSHLDGSRHMLSPERSIEIQHLLGSDIVMAFDEVTPYPATPSRAASSMERSMRWAKRSRDAFDSRKEQAENAALFGIQQGSVFENLRQQSADALAEIGFDGYAVGGLAGGEGQDEMFRVLDFSVPMLPDDKPHYLMGVGKPDDIVGAVERGIDMFDCVLPTRSGRNGQAFTWDGPINIRNARFSEDLTPLDSECHCAVCQKWSRAYIHHLIRAGEILGAMLMTEHNIAFYQQLMQKIRDSISEGRFSQFAQDFRARYFARNS
notes: as for B1
As to B4, in data set [1], the Km is 13.5 ± 3.1 µM and the kcat came to 0.001 ± 0.0003 s⁻¹. Further, in “purified protein”, the Km was 2.7 ± 0.3 µM and the kcat was determined as 0.0006 ± 0.0001 s⁻¹.
